The supplement of paper PMC10724198
± gives the standard deviation of the averaged measurements.

test system: Saccharomyces cerevisiae; assay: protein stability index of tFT-peptide fusion (C-terminal peptide) (PSI (0-1 scale)); higher = more stable (slower turnover); conditions: genetic background: wild type; temperature: 30 C
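Also: PSI is a weighted mean of sequencing reads over stability bins, variants kept only with over 10 reads, mCherry proximal and sfGFP distal, peptide attached via GGGS linker.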

Sequence	protein stability index
PRLRRVCGQSLV	0.6664 ± 0.0066
RLPLAPFSVTTH	0.699 ± 0.1
AEFSGVVIGRWW	0.718 ± 0.054
WLRCGCVKWAGG	0.657 ± 0.013
PPSRAPPAFPPL	0.827 ± 0.2
SNPSTNPCWKKK	0.643 ± 0.041
CAEFLFSTVLYP	0.735 ± 0.049
PTHCTPRRRTRR	0.676 ± 0.014
HPLPPPLLPSPA	0.659 ± 0.096
VLVLVARPLWRI	0.646 ± 0.0094
YWLCITECHIRK	0.541 ± 0.0092
GGVWWLGVVGGV	0.657 ± 0.081
SFNVFKINSITV	0.562 ± 0.019
DVLSLFCKFFGV	0.661 ± 0.075
SRHWCHDTGTLT	0.7 ± 0.012
TLSQILVSSSLS	0.5896 ± 0.0019
SPPTPPTSICPS	0.705 ± 0.03
FGVSLWPGFLYL	0.587 ± 0.0065
RKKKNRKERQKK	0.6725 ± 0.00086
VSPTGRRGYGRS	0.66754 ± 0.00015
FAVLGGGVGGGW	0.7077 ± 0.0032
RGILGAGGAGRG	0.744 ± 0.079
PPRSIPLPSPFH	0.741 ± 0.016
DDSSLLMLNCLE	0.71964 ± 0.00048
LPPSPEPLPPRR	0.717 ± 0.059

Sequence	protein stability index
GYLNSCADKNKV	0.664 ± 0.028
LDVFPVWSDANA	0.714 ± 0.031
PVAQSCHAPSPP	0.62303 ± 0.00018
LPPAVIVCVLPS	0.586 ± 0.0097
LVLVSFWWSGPM	0.526 ± 0.031
YSPSPPSFAFSS	0.801 ± 0.079
TRGCIRWRVVRR	0.7 ± 0.035
VCRGWGVCGEWG	0.6243 ± 0.0025
GTLLRINLMTIQ	0.663 ± 0.02
VGRGPSAPVSCV	0.726 ± 0.061
AFCCRSPPSSHP	0.655 ± 0.096
SWEIGHLLPGTD	0.6671 ± 0.0048
RSTDKLLGLKKM	0.652 ± 0.073
QNHKSYQTQDHN	0.616 ± 0.051
AGRGEIVINGKR	0.615 ± 0.07
PFRSPFSSSPTF	0.7772 ± 0.0077
VGNGGVWSVGRG	0.685 ± 0.038
SLLFLRFLFSTP	0.705 ± 0.0086
AMGSGLVWAGPA	0.684 ± 0.03
IPDATGYGWVRH	0.691 ± 0.018
LTSRPIPFLLRG	0.666 ± 0.014
LSFSPSFLPDSP	0.782 ± 0.062
GSRRSGITSYAN	0.687 ± 0.011
SPPTPPPSPPFL	0.523 ± 0.012
TNYQKANIRINN	0.667 ± 0.035

Sequence	protein stability index
AGLGHVPGEHSV	0.613 ± 0.033
PRSPTPPPSYSP	0.715 ± 0.11
CGFALFLCDGFV	0.744 ± 0.083
FTVSPFIFLFSP	0.653 ± 0.0074
PHPCSPAPPWPL	0.694 ± 0.028
GSGTRNLLFIKS	0.6708 ± 0.001
FFPPFLFSLFRT	0.5621 ± 0.0007
QARSLVRSLCYP	0.677 ± 0.0082
DGWVAVGRALGG	0.704 ± 0.028
GKGKETKELIGK	0.711 ± 0.023
PHPPLPPLLPPA	0.741 ± 0.082
EITLFELWPPGS	0.78 ± 0.03
RLGVWVWGFTPG	0.742 ± 0.082
KRKKQKKNQQNR	0.682 ± 0.019
KEKRFTQKLIRA	0.654 ± 0.095
APVLPKPSPFSF	0.629 ± 0.01
ARTADPAATPST	0.687 ± 0.02
HAPRSPCLPFPP	0.687 ± 0.047
DSASFAFCCFCD	0.639 ± 0.023
PPLDLPFPSRSI	0.745 ± 0.0078
SDCPYVYVRVRD	0.69 ± 0.02
PHPLPSHPLPPP	0.738 ± 0.023
RGGGGPTVEDRR	0.681 ± 0.007
LSRPPPPLLPSV	0.749 ± 0.03
LFGFLGVAACVV	0.483 ± 0.048

Sequence	protein stability index
ERKEPRIQQQTL	0.67 ± 0.075
VRHGERGGGLGD	0.782 ± 0.06
PPRPPFPLPSPL	0.703 ± 0.025
VGCGGGEFSLFG	0.727 ± 0.034
AGAGGGSLGPAG	0.651 ± 0.1
RSWCAGMAGRRR	0.6626 ± 0.0043
DIHSSQVPSMFA	0.68 ± 0.076
NHFQYHSPVASE	0.688 ± 0.028
SGWSVGVMGESG	0.627 ± 0.092
PSFVRTVPSPCP	0.658 ± 0.011
AGRAPRGSWECS	0.719 ± 0.18
VGCGVGGIGVLV	0.712 ± 0.1
TTGGRGSRGGGR	0.723 ± 0.039
KRLKRKSNLERE	0.69 ± 0.047
SPPPSSPPPFPR	0.639 ± 0.026
GFLPDSKVKNPF	0.673 ± 0.029
PSPLPPVPPPPP	0.639 ± 0.095
ESTNKKKEKKNR	0.661 ± 0.04
SPCPPPPPSPPS	0.6637 ± 0.0013
PGITRKTKKEKK	0.701 ± 0.041
PPPLPPLPTALS	0.693 ± 0.0036
SKIKLYKIKKKK	0.7206 ± 0.0054
AISCPFIRFSSL	0.614 ± 0.0091
RTGTGTRTRPSR	0.701 ± 0.066
PPPPLPSFPSSS	0.858 ± 0.062

Sequence	protein stability index
APHAPPPSFPAP	0.729 ± 0.0097
DSILYKKYKQLG	0.559 ± 0.024
HSHKHTREDTVL	0.657 ± 0.036
AASGCGRPGCSA	0.663 ± 0.059
VVGVLRVRSGEN	0.606 ± 0.03
PEEGQNASVRPC	0.694 ± 0.023
PSPPPAPAPLLA	0.667 ± 0.032
WFHSANLFLSLS	0.705 ± 0.077
PPTIHPSPAAPH	0.623 ± 0.062
PRGLLLPLPCHS	0.574 ± 0.00058
KKVLKFTKKKKP	0.599 ± 0.048
PPTPPSIPPSPP	0.624 ± 0.064
CACYILHGRSNP	0.684 ± 0.081
LLLPPPLSASSS	0.633 ± 0.028
SGALSDVCVMLL	0.652 ± 0.026
SHICSFLGICHA	0.576 ± 0.031
ESDLNDLGQNLN	0.674 ± 0.058
RGYVNVWTRLGN	0.717 ± 0.043
GGRPVTGIAGML	0.666 ± 0.025
GQIACSECGGGG	0.679 ± 0.027
GHYPCLPFLFPL	0.707 ± 0.087
APPPPSPPSLAS	0.736 ± 0.074
VFSLQCVSGIFV	0.568 ± 0.076
DLRSSDPVAGSL	0.623 ± 0.011
GSARLPLWSLPP	0.793 ± 0.0082

Sequence	protein stability index
LSWSLSSFACEM	0.65 ± 0.014
TFLRGSILLVSP	0.617 ± 0.059
HPARPRPRLALS	0.666 ± 0.043
IGFGPVSCARLF	0.679 ± 0.11
RIEIVDVQFLWE	0.7 ± 0.048
PPPPPRAPSLLA	0.704 ± 0.03
DVHPPPPAPPPP	0.747 ± 0.12
NKYTKSKKNNKE	0.761 ± 0.14
GSGWRSRRAPGP	0.747 ± 0.047
LTYVSGIASVYG	0.532 ± 0.019
SGLPALPRPVWP	0.491 ± 0.076
KTHKKRYRKGNT	0.725 ± 0.12
GCGLGEEGSSGV	0.647 ± 0.0091
CSLLCKCHLRRL	0.712 ± 0.1
VPLPLHLPPPLP	0.863 ± 0.12
PQVGWFCNRLEV	0.836 ± 0.17
IYSGIYCVGAKH	0.666 ± 0.03
SPKGHGEGGGSK	0.6779 ± 0.00078
RVSSAAGGSIDL	0.738 ± 0.1
SILRLRSVVPAE	0.6457 ± 0.0027
SFRQSRLKRRGY	0.672 ± 0.15
